Results published in ChEMBL document CHEMBL1135258, “Substrate spectrum of tyrocidine thioesterase probed with randomized peptide N-acetylcysteamine thioesters” (Bioorg Med Chem Lett, 2002).

How the values were obtained:
Conditions in all cases: Brevibacillus brevis
[1] = substrate: CC(=O)NCCSC(=O)[C@H](CC(C)C)NC(=O)[C@H](CCCN)NC(=O)[C@@H](NC(=O)[C@H](CC(N)=O)NC(=O)[C@H](CCC(N)=O)NC(=O)[C@H](CC(N)=O)NC(=O)[C@@H](Cc1ccccc1)NC(=O)[C@H](Cc1ccccc1)NC(=O)[C@@H]1CCCN1C(=O)[C@H](N)Cc1ccccc1)C(C)C; experiment: (§1) Apparent kinetic constant (Km) determined for tyrocidine thioesterase amplified from Bacillus brevis (ATCC8185)
[2] = substrate: CC(=O)NCCSC(=O)[C@H](CC(C)C)NC(=O)[C@H](CCCN)NC(=O)[C@@H](NC(=O)[C@H](Cc1ccc(O)cc1)NC(=O)[C@H](CCC(N)=O)NC(=O)[C@H](CC(N)=O)NC(=O)[C@@H](Cc1ccccc1)NC(=O)[C@H](Cc1ccccc1)NC(=O)[C@H](C)NC(=O)[C@H](N)Cc1ccccc1)C(C)C; experiment: as §1
[3] = substrate: CC(=O)NCCSC(=O)[C@H](CC(C)C)NC(=O)[C@H](CCCN)NC(=O)[C@@H](NC(=O)[C@H](Cc1ccc(O)cc1)NC(=O)[C@H](CCC(N)=O)NC(=O)[C@H](CC(N)=O)NC(=O)[C@@H](Cc1ccccc1)NC(=O)[C@H](Cc1ccccc1)NC(=O)[C@H](CC(N)=O)NC(=O)[C@H](N)Cc1ccccc1)C(C)C; experiment: as §1
[4] = substrate: CC(=O)NCCSC(=O)[C@H](CC(C)C)NC(=O)[C@H](CCCN)NC(=O)[C@@H](NC(=O)[C@H](Cc1ccc(O)cc1)NC(=O)[C@H](CCC(N)=O)NC(=O)[C@H](CC(N)=O)NC(=O)[C@H](C)NC(=O)[C@H](Cc1ccccc1)NC(=O)[C@@H]1CCCN1C(=O)[C@H](N)Cc1ccccc1)C(C)C; experiment: as §1
[5] = substrate: CC(=O)NCCSC(=O)[C@H](CC(C)C)NC(=O)[C@H](CCCN)NC(=O)[C@@H](NC(=O)[C@H](Cc1ccc(O)cc1)NC(=O)[C@H](CCC(N)=O)NC(=O)[C@H](CC(N)=O)NC(=O)[C@H](CC(N)=O)NC(=O)[C@H](Cc1ccccc1)NC(=O)[C@@H]1CCCN1C(=O)[C@H](N)Cc1ccccc1)C(C)C; experiment: as §1
[6] = substrate: CC(=O)NCCSC(=O)[C@H](CC(C)C)NC(=O)[C@H](CCCN)NC(=O)[C@@H](NC(=O)[C@H](Cc1ccc(O)cc1)NC(=O)[C@H](CCC(N)=O)NC(=O)[C@H](CC(N)=O)NC(=O)[C@H](CCC(N)=O)NC(=O)[C@H](Cc1ccccc1)NC(=O)[C@@H]1CCCN1C(=O)[C@H](N)Cc1ccccc1)C(C)C; experiment: as §1
[7] = substrate: CC(=O)NCCSC(=O)[C@H](CC(C)C)NC(=O)[C@H](CCCN)NC(=O)[C@@H](NC(=O)[C@H](Cc1ccc(O)cc1)NC(=O)[C@H](CCC(N)=O)NC(=O)[C@H](CC(N)=O)NC(=O)[C@H](CCCCN)NC(=O)[C@H](Cc1ccccc1)NC(=O)[C@@H]1CCCN1C(=O)[C@H](N)Cc1ccccc1)C(C)C; experiment: as §1
[8] = substrate: CC(=O)NCCSC(=O)[C@H](CC(C)C)NC(=O)[C@H](CCCN)NC(=O)[C@@H](NC(=O)[C@H](Cc1ccc(O)cc1)NC(=O)[C@H](CCC(N)=O)NC(=O)[C@H](CC(N)=O)NC(=O)[C@H](CCCN=C(N)N)NC(=O)[C@H](Cc1ccccc1)NC(=O)[C@@H]1CCCN1C(=O)[C@H](N)Cc1ccccc1)C(C)C; experiment: as §1
[9] = substrate: CC(=O)NCCSC(=O)[C@H](CC(C)C)NC(=O)[C@H](CCCN)NC(=O)[C@@H](NC(=O)[C@H](Cc1ccc(O)cc1)NC(=O)[C@H](CCC(N)=O)NC(=O)[C@H](CC(N)=O)NC(=O)[C@H](CO)NC(=O)[C@H](Cc1ccccc1)NC(=O)[C@@H]1CCCN1C(=O)[C@H](N)Cc1ccccc1)C(C)C; experiment: as §1
[10] = substrate: CC(=O)NCCSC(=O)[C@H](CC(C)C)NC(=O)[C@H](CCCN)NC(=O)[C@@H](NC(=O)[C@H](Cc1ccc(O)cc1)NC(=O)[C@H](CCC(N)=O)NC(=O)[C@H](CC(N)=O)NC(=O)[C@H](Cc1c[nH]c2ccccc12)NC(=O)[C@H](Cc1ccccc1)NC(=O)[C@@H]1CCCN1C(=O)[C@H](N)Cc1ccccc1)C(C)C; experiment: as §1
[11] = substrate: CC(=O)NCCSC(=O)[C@H](CC(C)C)NC(=O)[C@H](CCCN)NC(=O)[C@@H](NC(=O)[C@H](Cc1ccc(O)cc1)NC(=O)[C@H](CCC(N)=O)NC(=O)[C@H](CC(N)=O)NC(=O)[C@H](Cc1c[nH]cn1)NC(=O)[C@H](Cc1ccccc1)NC(=O)[C@@H]1CCCN1C(=O)[C@H](N)Cc1ccccc1)C(C)C; experiment: as §1
[12] = substrate: CC(=O)NCCSC(=O)[C@H](CC(C)C)NC(=O)[C@H](CCCN)NC(=O)[C@@H](NC(=O)[C@H](Cc1ccc(O)cc1)NC(=O)[C@H](CCC(N)=O)NC(=O)[C@H](CC(N)=O)NC(=O)[C@H](Cc1ccc(O)cc1)NC(=O)[C@H](Cc1ccccc1)NC(=O)[C@@H]1CCCN1C(=O)[C@H](N)Cc1ccccc1)C(C)C; experiment: as §1
[13] = substrate: CC(=O)NCCSC(=O)[C@H](CC(C)C)NC(=O)[C@H](CCCN)NC(=O)[C@@H](NC(=O)[C@H](Cc1ccc(O)cc1)NC(=O)[C@H](CCC(N)=O)NC(=O)[C@H](CC(N)=O)NC(=O)[C@H](Cc1ccccc1)NC(=O)[C@H](Cc1ccccc1)NC(=O)[C@@H]1CCCN1C(=O)[C@H](N)Cc1ccccc1)C(C)C; experiment: as §1
[14] = substrate: CC[C@H](C)[C@H](NC(=O)[C@H](Cc1ccccc1)NC(=O)[C@@H]1CCCN1C(=O)[C@H](N)Cc1ccccc1)C(=O)N[C@@H](CC(N)=O)C(=O)N[C@@H](CCC(N)=O)C(=O)N[C@@H](Cc1ccc(O)cc1)C(=O)N[C@H](C(=O)N[C@@H](CCCN)C(=O)N[C@@H](CC(C)C)C(=O)SCCNC(C)=O)C(C)C; experiment: as §1
[15] = substrate: CSCC[C@H](NC(=O)[C@H](Cc1ccccc1)NC(=O)[C@@H]1CCCN1C(=O)[C@H](N)Cc1ccccc1)C(=O)N[C@@H](CC(N)=O)C(=O)N[C@@H](CCC(N)=O)C(=O)N[C@@H](Cc1ccc(O)cc1)C(=O)N[C@H](C(=O)N[C@@H](CCCN)C(=O)N[C@@H](CC(C)C)C(=O)SCCNC(C)=O)C(C)C; experiment: as §1

B1: Thioesterase GrsT homolog tycF (Brevibacillus brevis), O30412 (protein)
chain: MKLFCFPYAGGLPGIYYSWKSRLPPTFLEIDAFEVRPHIPQPNRDVFLPTSFYELLEDVCDRITPALTETPFAFFGHSMGGLVAFELTRKLMQKGAPLPQHLFLSASRAPHAYGKLAKTYNLPHDEFVEALRKLGGTPDDVLENQELLELFLPILRADFQAVQTYEMNPDLPRQVPVNMTVLYGTEDTIALEDIWAWRDYCQGACQFFPVSGGHFFIHHQTSPILEIIQNVLKEEKTVAIHSSF
Km [1]: 7.6 µM
Km [2]: 31 µM
Km [3]: 82 µM
Km [4]: 19 µM
Km [5]: 19 µM
Km [6]: 16 µM
Km [7]: 15 µM
Km [8]: 24 µM
Km [9]: 14 µM
Km [10]: 7.5 µM
Km [11]: 82 µM
Km [12]: 65 µM
Km [13]: 4.8 µM
Km [14]: 32 µM
Km [15]: 20 µM
